Source: patent US20130096282A1 (LOSTAM BIOPHARMACEUTICALS, published 2013)

What was measured:
[1] = molecular target: T1, flagellin type A of P. aeruginosa laboratory strain PAK (Pseudomonas aeruginosa, UniProt P21184 2-394); experiment: ELISA on whole immobilized bacteria, single point
T1 construct: whole, on cells; Tested on whole immobilized or formaldehyde-fixed bacteria (ELISA) and in blotted bacterial lysate (western blot)
T1 sequence: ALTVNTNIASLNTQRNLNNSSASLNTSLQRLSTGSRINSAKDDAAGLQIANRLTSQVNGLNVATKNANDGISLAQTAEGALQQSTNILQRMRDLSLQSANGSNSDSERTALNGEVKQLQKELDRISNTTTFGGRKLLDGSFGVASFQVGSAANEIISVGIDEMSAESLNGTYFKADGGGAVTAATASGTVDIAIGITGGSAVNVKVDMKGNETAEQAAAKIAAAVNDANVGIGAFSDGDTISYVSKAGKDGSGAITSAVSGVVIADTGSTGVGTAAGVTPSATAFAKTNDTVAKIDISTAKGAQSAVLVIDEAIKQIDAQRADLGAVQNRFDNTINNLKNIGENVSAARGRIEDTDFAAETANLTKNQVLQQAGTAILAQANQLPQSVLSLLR

[2] = molecular target: T2, recombinantly-expressed P. aeruginosa flagellin type B (Pseudomonas aeruginosa, UniProt P72151 1-488); experiment: SPR (ProteOn XPR36), mAb amine-coupled to GLM chip, flagellin as analyte 5-80 nM, 1:1 model
T2 construct: also called PA flagellin type B; PA flagellin B
T2 sequence: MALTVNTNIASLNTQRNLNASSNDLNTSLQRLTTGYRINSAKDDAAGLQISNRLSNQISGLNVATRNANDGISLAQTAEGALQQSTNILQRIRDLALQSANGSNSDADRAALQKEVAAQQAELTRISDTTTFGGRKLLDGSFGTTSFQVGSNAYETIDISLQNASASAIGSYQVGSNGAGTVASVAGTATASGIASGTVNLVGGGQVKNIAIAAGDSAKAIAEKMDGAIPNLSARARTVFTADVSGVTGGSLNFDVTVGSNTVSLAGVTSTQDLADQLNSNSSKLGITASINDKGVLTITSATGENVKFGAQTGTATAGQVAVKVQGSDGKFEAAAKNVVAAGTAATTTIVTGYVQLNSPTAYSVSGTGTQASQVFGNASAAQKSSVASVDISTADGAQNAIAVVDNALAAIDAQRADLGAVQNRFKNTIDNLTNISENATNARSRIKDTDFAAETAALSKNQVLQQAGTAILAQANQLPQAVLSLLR

[3] = molecular target: T2, recombinantly-expressed P. aeruginosa …; experiment: ELISA, plates coated with recombinant flagellin type B at 5 µg/ml, anti-human Fc-HRP
[4] = molecular target: T3, flagellin type B of P. aeruginosa laboratory strain PA01 (Pseudomonas aeruginosa, UniProt P72151 1-488); experiment: immunoblot of P. aeruginosa lysates probed with LST-003, anti-human Fc peroxidase detection
T3 construct: whole, on cells; Tested on whole immobilized or formaldehyde-fixed bacteria (ELISA), in blotted lysate (western blot) and on live bacteria (motility)
T3 sequence: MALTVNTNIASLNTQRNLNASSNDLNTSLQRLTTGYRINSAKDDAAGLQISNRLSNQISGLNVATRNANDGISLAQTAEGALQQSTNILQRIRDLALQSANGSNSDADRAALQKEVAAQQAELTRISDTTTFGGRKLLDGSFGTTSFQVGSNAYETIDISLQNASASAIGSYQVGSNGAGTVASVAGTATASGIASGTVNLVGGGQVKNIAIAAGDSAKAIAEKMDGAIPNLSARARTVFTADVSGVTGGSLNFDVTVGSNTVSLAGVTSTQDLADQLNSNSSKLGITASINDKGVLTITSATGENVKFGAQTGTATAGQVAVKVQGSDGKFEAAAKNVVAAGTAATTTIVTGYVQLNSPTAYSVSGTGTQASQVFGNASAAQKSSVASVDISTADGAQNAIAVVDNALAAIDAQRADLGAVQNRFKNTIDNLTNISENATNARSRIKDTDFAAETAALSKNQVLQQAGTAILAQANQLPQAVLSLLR

[5] = molecular target: T4, recombinantly-expressed P. aeruginosa flagellin type A (Pseudomonas aeruginosa, UniProt P21184 2-394); experiment: ELISA on plates coated with purified flagellin type A
T4 construct: also called PA flagellin type A; PA flagellin A
T4 sequence: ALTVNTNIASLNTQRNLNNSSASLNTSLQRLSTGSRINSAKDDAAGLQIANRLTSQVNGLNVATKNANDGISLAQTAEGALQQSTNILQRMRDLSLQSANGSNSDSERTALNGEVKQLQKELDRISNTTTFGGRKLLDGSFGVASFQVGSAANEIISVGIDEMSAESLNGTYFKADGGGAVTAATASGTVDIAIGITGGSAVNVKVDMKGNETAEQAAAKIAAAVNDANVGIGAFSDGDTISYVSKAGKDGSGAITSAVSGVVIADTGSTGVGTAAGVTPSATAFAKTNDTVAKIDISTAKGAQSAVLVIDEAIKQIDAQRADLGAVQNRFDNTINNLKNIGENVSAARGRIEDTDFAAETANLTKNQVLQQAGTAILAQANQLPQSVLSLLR

[6] = molecular target: T4, recombinantly-expressed P. aeruginosa …; experiment: SPR (ProteOn XPR36), mAb amine-coupled to GLM chip, flagellin as analyte 5-80 nM, 1:1 model
[7] = molecular target: T4, recombinantly-expressed P. aeruginosa …; experiment: ELISA, plates coated with recombinant flagellin type A (250 ng/well), anti-human Fc-HRP
[8] = molecular target: T3, flagellin type B of P. aeruginosa …; experiment: immunoblot of P. aeruginosa lysates probed with LST-001, anti-mouse Fc peroxidase detection
[9] = molecular target: T2, recombinantly-expressed P. aeruginosa …; experiment: ELISA on plates coated with purified flagellin type B
[10] = molecular target: T2, recombinantly-expressed P. aeruginosa …; experiment: ELISA, plates coated with recombinant flagellin type B (250 ng/well), anti-human Fc-HRP

B1: human monoclonal IgM antibody LST-007 (antibody, V domains shown)
VH: QVRLVQSGTEVKKPGASVRVSCKASGYTFSNYYMYWVRQAPGQGLEWMAMINPSGGSTRYAQKFQGRVTMTRDTSTSTVYMELSSLRSEDTAVYYCARADSGSYFGYWGQGTLVTVSS
VL: DIQLTQSPSFLSASVGDRVPITCRASQGISTHLAWYQQKPGKAPKLLIYAASTLQSGVPSRFSGSGSGTEFTLTISSLQPEDSATYYCQQLKSYPLTFGGGTKVEIKR
notes: Human IgM from an EBV-transformed lymphoblastoid cell line, tested as culture supernatant; also called 20H11 (ATCC CRL9300); human monoclonal IgM anti-flagella type B antibody
Does B1 bind [1]?
Result: no binding

B2: fully human recombinant mAb LST-008 (antibody, V domains shown)
VH: QVRLVQSGTEVKKPGASVRVSCKASGYTFSNYYMYWVRQAPGQGLEWMAMINPSGGSTRYAQKFQGRVTMTRDTSTSTVYMELSSLRSEDTAVYYCARADSGSYFGYWGQGTLVTVSS
VL: DIQLTQSPSFLSASVGDRVPITCRASQGISTHLAWYQQKPGKAPKLLIYAASTLQSGVPSRFSGSGSGTEFTLTISSLQPEDSATYYCQQLKSYPLTFGGGTKVEIKR
notes: Human IgG1 made in CHO-S cells; also called recombinant human LST-008
For B2, which Kd [2] is on record?
The Kd was 0.94 nM.

And the EC50 [3]?
Its EC50 is about 0.01 µg/mL.

B3: chimeric mAb LST-003 (antibody, V domains shown)
VH: DVQLQESGPGLVKPSQSLSLPCSVTGYSITSGYYWNWIRQFPGNKLEWMGYIRYDGNNNYNPSLKNRISITHDTSKNQFFLKLNYVTTEDTATYYCARGLQFYFDSWGQGTTLTVSS
VL: DIVMSQSPSSLAVSGGEKVTMSCKSSQSLLNGSYQKHTLAWYQQKPGQSPKLLIYWASTRESGVPDRFTGSGSGTDFTLTISSVKAEDLAVYYCQQYYSYPWTFGGGTKLEIKR
notes: also called chimeric LST-003; chimeric anti-flagella type A antibody
Does B3 bind [4]?
Result: no binding (tested: 10 µg/ml)

What about the “EC50 (read off the curve)” value [5] of the same binder?
Its value is about 0.7 nM.

What about the Kd [6] of the same binder?
Its Kd is 3 nM.

And the EC50 [7]?
Its EC50 is about 0.065 µg/mL.

B4: mouse monoclonal antibody LST-001 (antibody, V domains shown)
VH: DVQLQESGPGLVKPSQSLSLPCSVTGYSITSGYYWNWIRQFPGNKLEWMGYIRYDGNNNYNPSLKNRISITHDTSKNQFFLKLNYVTTEDTATYYCARGLQFYFDSWGQGTTLTVSS
VL: DIVMSQSPSSLAVSGGEKVTMSCKSSQSLLNGSYQKHTLAWYQQKPGQSPKLLIYWASTRESGVPDRFTGSGSGTDFTLTISSVKAEDLAVYYCQQYYSYPWTFGGGTKLEIKR
notes: Mouse monoclonal antibody; also called mouse LST-001; FA6 IIG5 (ATCC HB9130)
Does B4 bind [8]?
Result: no binding (tested: 10 µg/ml)

What about the Kd [6] of the same binder?
Its Kd is 0.6 nM.

B5: dual-specific chimeric mAb LST-010 (bispecific antibody)
heavy: not shown
light: DIVMSQSPSSLAVSGGEKVTMSCKSSQSLLNGSYQKHTLAWYQQKPGQSPKLLIYWASTRESGVPDRFTGSGSGTDFTLTISSVKAEDLAVYYCQQYYSYPWTFGGGTKLEIKR
notes: also called dual-specific LST-010 mAb; not shown: human light constant domain (CL)
How did the “EC50 (read off the curve)” value [5] turn out when B5 was run?
Its value is about 0.9 nM.

B6: chimeric mAb LST-004 (antibody, V domains shown)
VH: EVMLVESGGGLVKPGGSLKLSCAASGFTFSTFTMSWVRQTPEKRLECVATINGGGGNTYYPDSVKGRFTISRDNAKNNLYLQMSSLRSEDTAFYFCSRLYGIYAMDYWGQGTSVTVSS
VL: DIVMTQSHIFMSTSVGDRVSITCKASQDVGSAVAWYQQKPGQSPKVLIYWTSTRHTGVPDRFAGSGSGTEFTLTISNVQSEDLADYFCQQYSSYPLTFGAGTKLELKR
notes: also called chimeric LST-004
How did the “EC50 (read off the curve)” value [9] turn out when B6 was run?
Its value is about 1 nM.

What about the EC50 [10] of the same binder?
Its EC50 is about 0.3 µg/mL.

And the Kd [2]?
The Kd was 1.3 nM.

B7: mouse monoclonal antibody LST-002 (antibody, V domains shown)
VH: EVMLVESGGGLVKPGGSLKLSCAASGFTFSTFTMSWVRQTPEKRLECVATINGGGGNTYYPDSVKGRFTISRDNAKNNLYLQMSSLRSEDTAFYFCSRLYGIYAMDYWGQGTSVTVSS
VL: DIVMTQSHIFMSTSVGDRVSITCKASQDVGSAVAWYQQKPGQSPKVLIYWTSTRHTGVPDRFAGSGSGTEFTLTISNVQSEDLADYFCQQYSSYPLTFGAGTKLELKR
notes: Mouse monoclonal antibody; also called mouse LST-002; PaF4 IVE5 (ATCC HB9129)
How did the Kd [2] turn out when B7 was run?
The Kd was 0.82 nM.

Does B7 bind [1]?
Result: no binding (tested: 1:2 dilution, concentration not given)
